The supplement of paper PMC11908140

B1: library; numbered along this chain (parent)
chain: MRKPRAAVGSGHRKQAASQEGRQKHAKNNSQAKPSACDGLARQPEEVVLQASVSSYHLFRDVAEVTAFRGSLLSWYDQEKRDLPWRRRAEDEMDLDRRAYAVWVSEVMLQQTQVATVINYYTGWMQKWPTLQDLASASLEEVNQLWAGLGYYSRGRRLQEGARKVVEELGGHMPRTAETLQQLLPGVGRYTAGAIASIAFGQATGVVDGNVARVLCRVRAIGADPSSTLVSQQLWGLAQQLVDPARPGDFNQAAMELGATVCTPQRPLCSQCPVESLCRARQRVEQEQLLASGSLSGSPDVEECAPNTGQCHLCLPPSEPWDQTLGVVNFPRKASRKPPREESSATCVLEQPGALGAQILLVQRPNSGLLAGLWEFPSVTWEPSEQLQRKALLQELQRWAGPLPATHLRHLGEVVHTFSHIKLTYQVYGLALEGQTPVTTVPPGARWLTQEEFHTAAVSTAMKKVFRVYQGQQPGTCMGSKRSQVSSPCSRKKPRMGQQVLDNFFRSHISTDAHSLNSAAQ

Variants of: B1
Assay: 8OG:A repair function score (normalized; synonymous = 0, nonsense = -1) (normalized log-likelihood score); higher = more repair activity (WT-like)
Details: with 8OG:A DNA repair reporter (GFP) in HEK-293 MUTYH KO cells
Outline: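 With 10 pg/ml doxycycline, MUTYH knockout HEK-293 cells carrying lentiviral MUTYH cDNA NNN codon-scan libraries were co-transfected with mCherry and an 8OG:A GFP repair reporter. Viable mCherry+ cells were sorted into GFP+ (repair) and GFP− bins at 72 h, three replicates per tile, and tile amplicons were sequenced. Per-tile Rosace fitness scores were then normalized into a repair function score anchored on synonymous and nonsense distributions. Medians were fixed at 0 for synonymous and -1 for nonsense, excluding variants under 300 counts per million at the start.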

8OG:A repair function score, by site and new letter:
A391: E -0.106, V 0.0327, P -0.305, Y -0.00342, R -0.136, T -0.42, C -0.0464, L -0.101, S -0.175, W -0.428, K -0.22, D -0.378, G -0.201, I 0.114, M -0.279, N -0.196, F 0.112, Q -0.0188
E395: T -0.194, Y -0.0134, P -0.546, W -0.193, R -0.122, C -0.217, V -0.0171, K -0.345, A -0.162, N -0.302, H -0.214, D -0.291, I -0.133, F -0.476, L -0.23, S 0.0493, G -0.277, Q -0.276, M -0.253
Q388: E -0.368, K -0.55, V 0.063, L 0.511, T -0.108, W -0.0946, C -0.459, Y -0.235, I 0.175, F -0.281, S -0.201, A 0.235, R 0.206, N 0.244, P 0.145, G -0.34, D 0.0946, H -0.356, M -0.052
K390: A -0.201, S 0.0865, G -0.0253, T -0.141, H 0.403, I -0.265, E -0.0669, R -0.126, Y -0.199, P -0.262, D 0.0762, V -0.164, N 0.177, W -0.444, L -0.0847, F -0.0738, M -0.0263, C 0.0921, Q 0.474
R389: G -0.385, T 0.1, I 0.462, A -0.241, C -0.13, V 0.273, W -0.531, H -0.403, S -0.117, P -0.583, F -0.357, Q -0.613, N -0.415, M -0.236, D -0.426, E -0.116, L -0.04, Y -0.0127, K -0.274
E382: R -0.0901, D -0.0303, K -0.213, Y 0.217, L 0.0169, N 0.0107, M 0.019, F 0.0805, W 0.0332, S 0.000352, I -0.0196, Q 0.185, C -0.16, V 0.0267, H 0.042, G -0.0795, T 0.196, P 0.149, A -0.0399
P383: E 0.0397, V -0.163, Y -0.0911, L -0.0053, Q 0.0121, S -0.0364, F -0.202, C -0.0431, G -0.0743, H 0.0207, R 0.0404, M -0.333, N -0.294, A 0.0723, K -0.1, T 0.0211, W -0.185, I -0.14, D 0.0298
Q386: Y 0.41, P -0.219, W 0.351, H 0.241, V -0.383, M 0.34, C 0.0105, F -0.144, R 0.0701, T -0.191, K -0.213, L 0.304, A 0.0488, S -0.0961, E -0.0345, I 0.129, D -0.076, G 0.0232, N 0.0466
Q397: A -0.314, V 0.0994, D -0.0883, S -0.159, E -0.364, M -0.301, K -0.304, F 0.0272, T -0.463, C -0.496, L -0.101, Y -0.0393, R -0.206, G -0.363, I -0.624, P -0.645, W 0.284, H -0.717
E385: V -0.0807, M 0.0941, I 0.197, A 0.0147, F -0.34, G -0.126, Q 0.29, C 0.258, T -0.24, P -0.17, R -0.0734, H -0.135, D 0.0907, L 0.0198, Y -0.00387, K -0.468, W 0.109, S -0.167, N -0.0672
W381: N 0.268, M 0.148, Y -0.0016, Q 0.126, H 0.26, V 0.0132, T 0.0347, R -0.0405, L 0.07, I 0.0761, S -0.174, G 0.0649, P -0.215, K -0.184
S384: E 0.0681, H -0.0587, M -0.315, Y -0.227, V -0.0122, A 0.0362, G 0.138, C -0.202, P -0.218, Q -0.345, F 0.0338, T -0.0483, L -0.000173, D 0.201, I 0.0514, K -0.0507, N -0.0929, R -0.115
L396: G -0.426, C -0.199, S -0.52, I -0.113, Q -0.673, N -0.969, K -1.03, E -1.07, V -0.026, F -0.431, P -0.766, M -0.451, R -0.992, H -0.886, T -0.534, W -0.581, D -1.33, A -0.329, Y -1.21
Q394: R -0.0703, H 0.21, K -0.158, Y -0.129, I -0.343, G 0.266, D 0.0938, W -0.387, T -0.314, A 0.04, F -0.00248, S -0.0073, P -0.467, C -0.273, L -0.0272, N 0.483, E 0.261, V -0.209, M -0.148
L392: P -1.09, V -0.289, K -1.03, G -0.896, R -1.02, Q -0.839, F -0.647, D -0.872, H -0.963, N -1.52, A -0.807, T -0.777, M -0.171, I 0.0377, Y -0.624, W -1.27, E -1.11, S -1.04, C -0.389
R398: H 0.0204, C -0.0446, K -0.0169, D -0.249, N -0.285, Q -0.525, L -0.263, V -0.2, M 0.0969, P -0.556, S -0.426, T -0.326, F 0.214, W -0.973, G -0.102, E -0.407, A 0.0255, Y 0.174, I -0.416
L393: P -0.792, Y -0.503, K -0.0987, H 0.25, D -0.369, I 0.0907, N -1.03, T -0.383, S -0.405, F -0.244, G -0.22, R 0.00361, W -0.266, Q 0.0615, A -0.295, E -0.395, V -0.37, C -0.00132, M 0.297
L387: V -0.0288, Q 0.0651, A -0.21, N -0.167, S 0.154, R -0.0979, D 0.259, K 0.00861, E -0.0756, F -0.293, I 0.125, C -0.171, H -0.744, M 0.0425, W -0.0182, P -0.26, G -0.154, Y -0.136, T 0.0729
